Like-named read-outs stand apart in the source and are kept apart here.
B1: recombinant soluble MeV-H Δ8 (other)
chain: RLHRAAIYTAEIHKSLSTNLDVTNSIEHQVKDVLTPLFKIIGDEVGLRTPQRFTDLVKFISDKIKFLNPDREYDFRDLTWCINPPERIKLNYDQYCADVAAEELMNALVNSTLLETRTTNQFLAVSKGNCPGPTTIRGQFSNMSLSLLDLYLSRGYNVSSIVTMTSQGMYGGTYLVGKPDLNSKGSELSQPSMYRVFEVGVIRNPGLGAPVFHMTNYFEQPISKDLSNCMVALGELKLAALCHRGDSITIPCRGSGKGVSFQLVKLGVWKSPTDMHSWVPLSTDDPVIDRLYLSSHRGVITDNQANWAVPTTRTDDKLQKETCFQQACKGKIQALCENLEWAPLKDSRIPSYGVLSVNLSLAAEPKIKIASGFGPLITHGSGMDLYKSNHNNVYWLTIPPMKNLALGVINTLKWIPRLKVSPYLFTVPIEEADEDCRAPTYLPAEVTGDVKLSSNLVILPGQDLQYVLATYDTSGVEHAVVYYVYSPGGSFSYVYPFRLPIKGTPIELQVECFTWAQRLWCRHFCVLADSESGGHLTHSGMVGMEVSCTVNREDEANRR
B4: CD46-Fc (Fc fusion)
chain: CEEPPTFEAMELIGKPKPYYEIGERVDYKCKKGYFYIPPLATHTICDRNHTWLPVSDDACYRETCPYIRDPLNGQAVPANGTYEFGYQMHFICNEGYYLIGEEILYCELKGSVAIWSGKPPICEKVLCTPPPKIKNGKHTFSEVEVFEYLDAVTYSCDPAPGPDPFSLIGESTIYCGDNSVWSRAAPECKVVKCRFPVVENGKQISGFGKKFYYKATVMFECDKGFYLDGSDTIVCDSNSTWDPPVPKCLKVLPPSSTKPPALSHSVSTSSTTKSPASSASGPRPTYKPPVSNY
notes: range 35-328

Legend:
[1] = molecular target: recombinant soluble MeV-H A (vaccine strain) (measles virus)
SLAM-Fc [2] = molecular target: T1, SLAM-Fc (UniProt Q13291 21-237); experiment: ELISA, receptor-Fc on plastic-bound MeV-H
T1 sequence: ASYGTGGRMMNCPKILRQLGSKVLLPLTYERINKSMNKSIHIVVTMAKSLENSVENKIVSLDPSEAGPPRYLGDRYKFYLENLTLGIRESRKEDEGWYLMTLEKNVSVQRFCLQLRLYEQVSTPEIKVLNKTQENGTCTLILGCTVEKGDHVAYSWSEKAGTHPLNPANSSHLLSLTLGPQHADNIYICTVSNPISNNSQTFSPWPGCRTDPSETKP

CD46-Fc = molecular target: B4; experiment: ELISA, receptor-Fc titrated on plastic-bound MeV-H; one-site fit, apparent Kd (half-saturating concentration)
[3] = molecular target: recombinant soluble MeV-H A (vaccine strain) (measles virus); experiment: ELISA, receptor-Fc titrated on plastic-bound MeV-H; one-site fit
[4] = molecular target: recombinant soluble MeV-H A (vaccine strain) (measles virus); experiment: ELISA, receptor-Fc titrated on plastic-bound MeV-H; one-site fit, apparent Kd
SLAM-Fc [5] = molecular target: T1, SLAM-Fc; experiment: as above
[6] = molecular target: B1; experiment: ELISA, receptor-Fc titrated on plastic-bound MeV-H

Molecule “nectin-4-Fc (from UniProt Q96NY8 32-349) (Fc fusion)” has a Bmax [1] of 1.56.

For “CD46-Fc (from UniProt P15529 35-328) (Fc fusion)”, the Kd [1] was 819 µM.

For B1, the binding result (SLAM-Fc [2]) was “no binding” and the Kd (CD46-Fc) was 0.00019 µM.

B2: SLAM-Fc (Fc fusion)
chain: ASYGTGGRMMNCPKILRQLGSKVLLPLTYERINKSMNKSIHIVVTMAKSLENSVENKIVSLDPSEAGPPRYLGDRYKFYLENLTLGIRESRKEDEGWYLMTLEKNVSVQRFCLQLRLYEQVSTPEIKVLNKTQENGTCTLILGCTVEKGDHVAYSWSEKAGTHPLNPANSSHLLSLTLGPQHADNIYICTVSNPISNNSQTFSPWPGCRTDPSETKP
Molecule B2 has a Bmax [3] of 2.09 and a Kd [4] of 2.68 µM.

B3: recombinant soluble MeV-H H1 (other)
chain: RLHRAAIYTAEIHKSLSTNLDVTNSIEHQVKDVLTPLFKIIGDEVGLRTPQRFTDLVKFISDKIKFLNPDREYDFRDLTWCINPPERIKLNYDQYCADVAAEELMNALVNSTLLETRTTNQFLAVSKGNCSGPTTIRGQFSNMSLSLLDLYLSRGYNVSSIVTMTSQGMYGGTYLVEKPNLNSKGSELSQLSMYRVFEVGVIRNPGLGAPVFHMTNYFEQPISKDLSNCMVALGELKLAALCHGGDSITIPYQGSGKGVSFQLVKLGVWKSPTDMHSWVPLSTDDPVIDRLYLSSHRGVITDNQANWAVPTTRTDDKLRMETCFQQACKGKIQALCENLEWAPLKDSRIPSYGVLSVDLSLAAEPKIKIASGFGPLITHGSGMDLYKSNHNNVYWLTIPPMKNLALGVINTLEWIPRLKVSPNLFTVPIKEAGEDCHAPTYLPAEVDGDVKLSSNLVILPGQDLQYVLATYDTSRVEHAVVYYVYSPSRSFSYFYPFRLPIKGTPIELQVECFTWAQRLWCRHFCVLADSESGGHLTHSGMVGMEVSCTVNREDEANRR
Work on B3 yielded a Kd (SLAM-Fc [5]) of 10.4 µM.

In the case of B4, the “fold better binding than MeV-H A and H1” value [6] is reported as roughly 4000 fold.

— patent US20220118080A1 (MAYO FOUNDATION FOR MEDICAL EDUCATION AND RESEARCH, published 2022)
